Like-named read-outs stand apart in the source and are kept apart here.

For series [1], the target named is PhoB (Escherichia coli) (UniProt P0AFJ5). Conditions: cited from earlier work.
For series [2] the target is unchanged. Briefly: analytical ultracentrifugation. The note with it: cited from earlier work.
The series “FRET or BRET” deals with the molecule itself. In words: FRET or BRET. On the technique in general: Bioluminescence resonance energy transfer reports proximity on the nanometre scale.

Sequence of PhoB (Escherichia coli) (P0AFJ5 whole entry): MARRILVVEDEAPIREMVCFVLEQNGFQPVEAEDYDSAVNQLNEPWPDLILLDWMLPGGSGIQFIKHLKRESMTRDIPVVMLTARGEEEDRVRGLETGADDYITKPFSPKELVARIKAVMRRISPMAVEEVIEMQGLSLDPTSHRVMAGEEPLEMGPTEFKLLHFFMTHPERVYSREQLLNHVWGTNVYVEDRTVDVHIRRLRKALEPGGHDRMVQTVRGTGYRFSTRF

Turning to PhoB (from UniProt P0AFJ5), the dissociation constant (Kd) in the series with PhoB (Escherichia coli) [1] was 378 µM; with PhoB (Escherichia coli) [2], 5.1 µM.

B1: CFP–BaeR / YFP–BaeR, phosphorylated (natural protein)
chain: MTELPIDENTPRILIVEDEPKLGQLLIDYLRAASYAPTLISHGDQVLPYVRQTPPDLILLDLMLPGTDGLTLCREIRRFSDIPIVMVTAKIEEIDRLLGLEIGADDYICKPYSPREVVARVKTILRRCKPQRELQQQDAESPLIIDEGRFQASWRGKMLDLTPAEFRLLKTLSHEPGKVFSREQLLNHLYDDYRVVTDRTIDSHIKNLRRKLESLDAEQSFIRAVYGVGYRWEADACRIV
modifications: phosphorylated in vitro with phosphoramidate and MgSO4 (conserved aspartate of the receiver domain; residue number not given)
With B1, in the series “FRET or BRET”, the binding result is “binds”.

B2: CFP–ArcA / YFP–ArcA, phosphorylated (natural protein)
chain: MQTPHILIVEDELVTRNTLKSIFEAEGYDVFEATDGAEMHQILSEYDINLVIMDINLPGKNGLLLARELREQANVALMFLTGRDNEVDKILGLEIGADDYITKPFNPRELTIRARNLLSRTMNLGTVSEERRSVESYKFNGWELDINSRSLIGPDGEQYKLPRSEFRAMLHFCENPGKIQSRAELLKKMTGRELKPHDRTVDVTIRRIRKHFESTPDTPEIIATIHGEGYRFCGDLED
modifications: phosphorylated in vitro with phosphoramidate and MgSO4 (conserved aspartate of the receiver domain; residue number not given)
With B2, in “FRET or BRET”, the binding result is given as “binds”.

B3: CFP–CpxR / YFP–CpxR, phosphorylated (natural protein)
chain: MNKILLVDDDRELTSLLKELLEMEGFNVIVAHDGEQALDLLDDSIDLLLLDVMMPKKNGIDTLKALRQTHQTPVIMLTARGSELDRVLGLELGADDYLPKPFNDRELVARIRAILRRSHWSEQQQNNDNGSPTLEVDALVLNPGRQEASFDGQTLELTGTEFTLLYLLAQHLGQVVSREHLSQEVLGKRLTPFDRAIDMHISNLRRKLPDRKDGHPWFKTLRGRGYLMVSAS
modifications: phosphorylated in vitro with phosphoramidate and MgSO4 (conserved aspartate of the receiver domain; residue number not given)
For the molecule B3, the binding result in the series “FRET or BRET” is listed as “binds”.

B4: CFP–PhoP / YFP–PhoP, phosphorylated (natural protein)
chain: MRVLVVEDNALLRHHLKVQIQDAGHQVDDAEDAKEADYYLNEHIPDIAIVDLGLPDEDGLSLIRRWRSNDVSLPILVLTARESWQDKVEVLSAGADDYVTKPFHIEEVMARMQALMRRNSGLASQVISLPPFQVDLSRRELSINDEVIKLTAFEYTIMETLIRNNGKVVSKDSLMLQLYPDAELRESHTIDVLMGRLRKKIQAQYPQEVITTVRGQGYLFELR
modifications: phosphorylated in vitro with phosphoramidate and MgSO4 (conserved aspartate of the receiver domain; residue number not given)
On to B4, for which the binding result in “FRET or BRET” is reported as “binds”.

B5: CFP–CusR / YFP–CusR, phosphorylated (natural protein)
chain: MKLLIVEDEKKTGEYLTKGLTEAGFVVDLADNGLNGYHLAMTGDYDLIILDIMLPDVNGWDIVRMLRSANKGMPILLLTALGTIEHRVKGLELGADDYLVKPFAFAELLARVRTLLRRGAAVIIESQFQVADLMVDLVSRKVTRSGTRITLTSKEFTLLEFFLRHQGEVLPRSLIASQVWDMNFDSDTNAIDVAVKRLRGKIDNDFEPKLIQTVRGVGYMLEVPDGQ
modifications: phosphorylated in vitro with phosphoramidate and MgSO4 (conserved aspartate of the receiver domain; residue number not given)
Turning to B5, the binding result in “FRET or BRET” is on record as “binds”.

B6: CFP–CreB / YFP–CreB, phosphorylated (natural protein)
chain: MQRETVWLVEDEQGIADTLVYMLQQEGFAVEVFERGLPVLDKARKQVPDVMILDVGLPDISGFELCRQLLALHPALPVLFLTARSEEVDRLLGLEIGADDYVAKPFSPREVCARVRTLLRRVKKFSTPSPVIRIGHFELNEPAAQISWFDTPLALTRYEFLLLKTLLKSPGRVWSRQQLMDSVWEDAQDTYDRTVDTHIKTLRAKLRAINPDLSPINTHRGMGYSLRGL
modifications: phosphorylated in vitro with phosphoramidate and MgSO4 (conserved aspartate of the receiver domain; residue number not given)
Consider B6, for which the binding result in the series “FRET or BRET” is given as “binds”.

B7: CFP–QseB / YFP–QseB, phosphorylated (natural protein)
chain: MRILLIEDDMLIGDGIKTGLSKMGFSVDWFTQGRQGKEALYSAPYDAVILDLTLPGMDGRDILREWREKGQREPVLILTARDALAERVEGLRLGADDYLCKPFALIEVAARLEALMRRTNGQASNELRHGNVMLDPGKRIATLAGEPLTLKPKEFALLELLMRNAGRVLSRKLIEEKLYTWDEEVTSNAVEVHVHHLRRKLGSDFIRTVHGIGYTLGEK
modifications: phosphorylated in vitro with phosphoramidate and MgSO4 (conserved aspartate of the receiver domain; residue number not given)
On to B7, for which the binding result in the series “FRET or BRET” was “binds”.

B8: CFP–TorR / YFP–TorR, phosphorylated (natural protein)
chain: MPHHIVIVEDEPVTQARLQSYFTQEGYTVSVTASGAGLREIMQNQSVDLILLDINLPDENGLMLTRALRERSTVGIILVTGRSDRIDRIVGLEMGADDYVTKPLELRELVVRVKNLLWRIDLARQAQPHTQDNCYRFAGYCLNVSRHTLERDGEPIKLTRAEYEMLVAFVTNPGEILSRERLLRMLSARRVENPDLRTVDVLIRRLRHKLSADLLVTQHGEGYFLAADVC
modifications: phosphorylated in vitro with phosphoramidate and MgSO4 (conserved aspartate of the receiver domain; residue number not given)
Consider B8, for which the binding result in the series “FRET or BRET” is “binds”.

B9: CFP–KdpE / YFP–KdpE, phosphorylated (natural protein)
chain: MTNVLIVEDEQAIRRFLRTALEGDGMRVFEAETLQRGLLEAATRKPDLIILDLGLPDGDGIEFIRDLRQWSAVPVIVLSARSEESDKIAALDAGADDYLSKPFGIGELQARLRVALRRHSATTAPDPLVKFSDVTVDLAARVIHRGEEEVHLTPIEFRLLAVLLNNAGKVLTQRQLLNQVWGPNAVEHSHYLRIYMGHLRQKLEQDPARPRHFITETGIGYRFML
modifications: phosphorylated in vitro with phosphoramidate and MgSO4 (conserved aspartate of the receiver domain; residue number not given)
As for B9, in the series “FRET or BRET”, the binding result is “binds”.

As usually defined, the Kd is a measure of binding affinity in units of concentration.

Source of the values: publication PMC2586830 (Molecular Microbiology, 2008).
